In patent US20070020717A1 (ARBOR VITA, published 2007):

Key:
[1] = molecular target: T1, Peptide 1956 (N-terminally biotinylated Tat-COX-2 peptide); assay: ELISA titration of the biotinylated peptide on captured GST-PDZ
T1 construct: also called PL of COX-2

[2] = molecular target: T1, Peptide 1956 (N-terminally biotinylated …); assay: ELISA (modified G assay): GST-PDZ captured by anti-GST antibody, biotinylated peptide, HRP-streptavidin

B1: GST-PDZ fusion protein, PDZ domain of SHANK3 (XM_037493 GID: 51476100) (other)
chain: SDYVIDDKVAVLQKRDHEGFGFVLRGAKAETPIEEFTPTPAFPALQYLESVDVEGVAWRAGLRTGDFLIEVNGVNVVKVGHKQVVALIRQGGNRLVMKVVSVTRKPEEDG
notes: also called SHANK3 PDZ domain
- binding result [1]: binds

B2: GST-PDZ fusion protein, PDZ domain of SHANK2 (GID 6049185) (other)
chain: ILEEKTVVLQKKDNEGFGFVLRGAKADTPIEEFTPTPAFPALQYLESVDEGGVAWQAGLRTGDFLIEVNNENVVKVGHRQVVNMIRQGGNHLVLKVVTVTRNLDPDDNSS
notes: also called SHANK2 PDZ domain
- binding result [1]: binds

B3: GST-PDZ fusion protein, PDZ domain of MAST2 (Accession no. AB047005) (other)
chain: ISALGSMRPPIIIHRAGKKYGFTLRAIRVYMGDSDVYTVHHMVWHVEDGGPASEAGLRQGDLITHVNGEPVHGLVHTEVVELILKSGNKVAISTTPLENSS
notes: also called MAST2 PDZ domain
- binding result [2]: binds

B4: GST-PDZ fusion protein, PDZ domain of SHANK1 (GID 7025450) (other)
chain: ILKEKTVLLQKKDSEGFGFVLRGAKAQTPIEEFTPTPAFPALQYLESVDEGGVAWRAGLRMGDFLIEVNGQNVVKVGHRQVVNMIRQGGNTLMVKVVMVTRHPDMDEAVQNSS
notes: also called SHANK1 PDZ domain
- binding result [1]: binds
